From patent US20170312350A1

B1: TCR R10P1A7 (TCR, V domains shown)
V domain 1: GEDVEQSLFLSVREGDSSVINCTYTDSSSTYLYWYKQEPGAGLQLLTYIFSNMDMKQDQRLTVLLNKKDKHLSLRIADTQTGDSAIYFCAESKETRLMFGDGTQLVVKP
V domain 2: GAVVSQHPSWVICKSGTSVKIECRSLDFQATTMFWYRQFPKQSLMLMATSNEGSKATYEQGVEKDKFLINHASLTLSTLTVTSAHPEDSSFYICSARAGGHEQFFGPGTRLTVLE
B2: TCR R10P1A7 expressed from lentiviral construct 1864R (MSCV-R10P1A7B-2A-R10P1A7A-WPRE) (TCR, V domains shown)
V domain 1: B1 V domain 1
V domain 2: B1 V domain 2
B3: TCR R10P1A7 expressed from lentiviral construct 1863R (MSCV-R10P1A7A-2A-R10P1A7B-WPRE) (TCR, V domains shown)
V domain 1: B1 V domain 1
V domain 2: B1 V domain 2

Legend:
[1] = target: MHC/IGF2BP3-001 tetramer (human); test: tetramer staining, flow cytometry of RNA-electroporated CD8+ T-cells
[2] = target: MHC/NYESO1-001 tetramer; test: tetramer staining, flow cytometry of RNA-electroporated CD8+ T-cells (unrelated-peptide tetramer)
[3] = target: MHC/IGF2BP3-001 tetramer (human); test: tetramer binding by flow cytometry, lentivirally transduced primary T-cells, donor 1
[4] = target: MHC/IGF2BP3-001 tetramer (human); test: tetramer binding by flow cytometry, lentivirally transduced primary T-cells, donor 2

| Binder | % IGF2BP3-001 TET-positive primary CD8+ T-cells [1] [%] | % NYESO1-001 TET-positive primary CD8+ T-cells [2] [%] | % of CD3+ Tet+ [3] [%] | % of CD8+ Tet+ [3] [%] | % of CD3+ Tet+ [4] [%] | % of CD8+ Tet+ [4] [%] |
| --- | --- | --- | --- | --- | --- | --- |
| B1 | 6.78 | 1.53 |  |  |  |  |
| B2 |  |  | 15.2 | 22 | 8.12 | 11.7 |
| B3 |  |  | 2.3 | 3.93 | 0.99 | 1.79 |
